Test results published in patent US20200308301A1 (Novartis, published 2020).

B1: NOV1401 (antibody, human IgG1, lambda, V domains shown)
VH: QVQLLESGGGLVQPGGSLRLSCAASGFTFSTAAMSWVRQAPGKGLEWVSGISGSGSSTYYADSVKGRFTISRDNSKNTLYLQMNSLRAEDTAVYYCARELSYLYSGYYFDYWGQGTLVTVSS
VL: QSVLTQPPSASGTPGQRVTISCSGSSSNIGSNDVSWYQQLPGTAPKLLIYKNYNRPSGVPDRFSGSKSGTSASLAISGLQSEDEADYYCSAWDQRQFDVVFGGGTKLTVLG
notes: It was amine-coupled to the chip in SPR, and used soluble and biotinylated in SET; also called anti-FXI/FXIa antibody NOV1401; anti-Factor XI/FXIa antibody NOV1401

Tests used:
[1] = target: B1; experiment: cell-based or functional assay
[2] = target: B1; experiment: cell-based or functional assay; remark: listed apart in the source
[3] = target: T1, Human plasma-derived FXIa (human, UniProt P03951 19-625); experiment: SPR, FXIa immobilized on GLC chip
T1 construct: also called Factor XIa
Description: SPR experiments were performed in principle as described in Example 2 with the following changes. Human plasma-derived FXIa was used as ligand and immobilized on an activated ProteOn GLC sensor chip (Bio-Rad Laboratories, Inc.) using standard amine coupling procedures as described and by injecting FXIa at a concentration of 10 μg/ml in 20 mM sodium acetate, pH 5.0 and at a flow rate of 30 μl/min for 10 min.
For binding competition studies NOV1401 and three mixture of NOV1401 with anti-NOV1401 Fab at molar ratios of 1:1, 1:2, and 1:10 were prepared in PBS/T buffer and injected in simultaneously onto surfaces with immobilized FXI at a flow rate of 100 μL/min. Sensorgrams were recorded for association and dissociation times of 220 s and 1800 s, respectively. Blank surfaces were used for background corrections.

[4] = target: B1; experiment: Solution equilibrium titration (SET), 1:1 fit, average
Description: (§1) 14 serial (2×) dilutions of NOV1401 were prepared in sample buffer (PBS pH 7.4 containing 0.5% (w/v) BSA and 0.02% Tween 20) and a constant concentration of the anti-NOV1401 Fab or IgG was added to each NOV1401 concentration ranging from 40 pM to 240 pM. Optimal constant anti-NOV1401 Fab or IgG concentrations and optimal starting concentrations for NOV1401 dilution series were determined in pilot experiments.
(§2) After incubation and three times washing with PBST (PBS containing 0.05% Tween 20) 30 μl/well of the NOV1401/anti-NOV1401 Fab or IgG preparation was transferred from the polypropylene MTP to the NOV1401-coated SA plate and incubated for 30 min at RT on a MTP shaker. After three additional wash steps, 30 μl of 0.5 μg/ml detection antibody (Goat anti-human Kappa LC-HRP, BETHYL # A80-115P) diluted in sample buffer was added to each well and incubated for 1 h at RT with shaking. After washing the plate again three times, 30 μl of detection reagent (LumiGLO Peroxidase Chemiluminescent Substrate, KPL #54-61-01) was added to each well. Electrochemiluminescence (ECL) signals were generated and detected immediately with a luminescence imager (SpectraMax M5, Molecular Devices, LLC).
Average ECL-signals were calculated from duplicate measurements within each assay. Data were baseline adjusted by subtracting the lowest value from all data points and plotted against the corresponding antigen concentration. KD values were determined by fitting the plot with the following non-linear curve fitting model for 1:1 binding according to Haenel et al 2005: […]

[5] = target: B1; experiment: SPR (ProteOn XPR36), NOV1401 immobilized, Fab as analyte, 1:1 Langmuir fit, average
Description: SPR binding experiments were performed on a ProteOn XPR36 instrument (Bio-Rad Laboratories, Inc.) in PBS/T buffer (50 mM phosphate, 150 mM NaCl, pH 7.4, 0.005% v/v Tween-20) at 25° C. NOV1401 (‘Ligand’) was immobilized onto an activated ProteOn GLC sensor chip (Bio-Rad Laboratories, Inc.) using standard amine coupling procedures as described by the manufacturer. Briefly, NOV1401 was injected at a concentration of 10 μg/ml in 20 mM sodium acetate, pH 5.0 and at a flow rate of 30 μl/min for 10 min. Unreacted groups were blocked by injecting 1 M ethanolamine.
For kinetic studies anti-NOV1401 Fabs (‘Analytes’) were diluted in PBS/T buffer to generate a dilution series with concentrations ranging from 0.125-4 nM. Fabs were injected onto surfaces with immobilized NOV1401 at a flow rate of 100 μL/min and sensorgrams were recorded for association and dissociation times of 220 s and 1800 s, respectively. Blank surfaces were used for background corrections. There was no need to regenerate surfaces since the ProteOn protein interaction array system allows to run up to six binding experiments on an identical surface in parallel.
Data processing and analysis including kon, koff, and KD determination were performed with the ProteOn Manager™ software version 3.1.0.6.

[6] = target: Human FXI in normal human plasma (human, UniProt P03951 19-625); experiment: cell-based or functional assay
[7] = target: T2, IDT3; experiment: SET: soluble NOV1401 titrated against constant IDT3 Fab; competitor is plate-bound biotinylated NOV1401; free Fab read as RLU
T2 construct: Fab; also called anti-NOV1401 Fab IDT3
Description: as §1
(§3) 30 µl/well of each dilution mix was distributed in duplicates to a 384-well polypropylene Eppendorf microplate (MTP). Sample buffer served as negative control and a sample containing no antigen as positive control (Bmax). The plate was sealed and incubated overnight at RT on a plate shaker.
as §2, with “After washing the plate again three times, 30 μl of detection reagent (LumiGLO Peroxidase Chemiluminescent Substrate, KPL #54-61-01) was added to each well.” left out

[8] = target: T3, IDT4; experiment: SET: soluble NOV1401 titrated against constant IDT4 Fab; competitor is plate-bound biotinylated NOV1401; free Fab read as RLU
T3 construct: Fab; also called anti-NOV1401 Fab IDT4
Description: as §1, §3
as §2, with “After washing the plate again three times, 30 μl of detection reagent (LumiGLO Peroxidase Chemiluminescent Substrate, KPL #54-61-01) was added to each well.” left out

[9] = target: T4, IDT5; experiment: SET: soluble NOV1401 titrated against constant IDT5 Fab; competitor is plate-bound biotinylated NOV1401; free Fab read as RLU
T4 construct: Fab; also called anti-NOV1401 Fab IDT5
Description: as §1, §3
as §2, with “After washing the plate again three times, 30 μl of detection reagent (LumiGLO Peroxidase Chemiluminescent Substrate, KPL #54-61-01) was added to each well.” left out

[10] = target: T5, IDT7; experiment: SET: soluble NOV1401 titrated against constant IDT7 Fab; competitor is plate-bound biotinylated NOV1401; free Fab read as RLU
T5 construct: Fab; also called anti-NOV1401 Fab IDT7
Description: as §1, §3
as §2, with “After washing the plate again three times, 30 μl of detection reagent (LumiGLO Peroxidase Chemiluminescent Substrate, KPL #54-61-01) was added to each well.” left out

[11] = target: T6, IDT8; experiment: SET: soluble NOV1401 titrated against constant IDT8 Fab; competitor is plate-bound biotinylated NOV1401; free Fab read as RLU
T6 construct: Fab; also called anti-NOV1401 Fab IDT8
Description: as §1, §3
as §2, with “After washing the plate again three times, 30 μl of detection reagent (LumiGLO Peroxidase Chemiluminescent Substrate, KPL #54-61-01) was added to each well.” left out

[12] = target: T7, IDT9; experiment: SET: soluble NOV1401 titrated against constant IDT9 Fab; competitor is plate-bound biotinylated NOV1401; free Fab read as RLU
T7 construct: Fab; also called anti-NOV1401 Fab IDT9
Description: as §1, §3
as §2, with “After washing the plate again three times, 30 μl of detection reagent (LumiGLO Peroxidase Chemiluminescent Substrate, KPL #54-61-01) was added to each well.” left out

[13] = target: T8, IDT10; experiment: SET: soluble NOV1401 titrated against constant IDT10 Fab; competitor is plate-bound biotinylated NOV1401; free Fab read as RLU
T8 construct: Fab; also called anti-NOV1401 Fab IDT10
Description: as §1, §3
as §2, with “After washing the plate again three times, 30 μl of detection reagent (LumiGLO Peroxidase Chemiluminescent Substrate, KPL #54-61-01) was added to each well.” left out

[14] = target: T9, IDT11; experiment: SET: soluble antigen (NOV1401 by the legend and Example 2, axis labelled MAA868) titrated against constant IDT11 IgG; competitor is plate-bound biotinylated NOV1401; free IgG read as RLU
T9 construct: also called anti-NOV1401 IgG IDT11; full length IgG format for IDT1
Description: as §1, §3
as §2, with “After washing the plate again three times, 30 μl of detection reagent (LumiGLO Peroxidase Chemiluminescent Substrate, KPL #54-61-01) was added to each well.” left out

[15] = target: T10, IDT12; experiment: SET: soluble antigen (NOV1401 by the legend and Example 2, axis labelled MAA868) titrated against constant IDT12 IgG; competitor is plate-bound biotinylated NOV1401; free IgG read as RLU
T10 construct: also called anti-NOV1401 IgG IDT12; full length IgG format for IDT2
Description: as §1, §3
as §2, with “After washing the plate again three times, 30 μl of detection reagent (LumiGLO Peroxidase Chemiluminescent Substrate, KPL #54-61-01) was added to each well.” left out

aPTT percentage reversal, NOV1401/anti NOV1401 ratio 1/1 (n/n) [1]	aPTT percentage reversal, NOV1401/anti NOV1401 ratio 1/3 (n/n) [1]	aPTT percentage reversal, NOV1401/anti NOV1401 ratio 1/10 (n/n) [1]	TGA percentage reversal, NOV1401/anti NOV1401 ratio 1/1 (n/n) [2]	TGA percentage reversal, NOV1401/anti NOV1401 ratio 1/3 (n/n) [2]	TGA percentage reversal, NOV1401/anti NOV1401 ratio 1/10 (n/n) [2]	binding result [3]	Kd [4]	Kd [5]	TGA in human plasma: IC50 of NOV1401 for reduction of peak thrombin [6]	binding result [7]	binding result [8]	binding result [9]	binding result [10]	binding result [11]	binding result [12]	binding result [13]	IC50 (read off the curve) [14]	IC50 (read off the curve) [15]	Binder
12%	45%	64%	49%	55%	55%	no binding	0.11 nM	0.44 nM											IDT1 (Fab, V domains shown, Fab (heavy chain is VH-CH1); also called anti-NOV1401 Fab IDT1) VH: QVQLLESGGGLVQPGGSLRLSCAASGFTFSDYAMSWVRQAPGKGLEWVSVIDYSSSNTYYADSVKGRFTISRDNSKNTLYLQMNSLRAEDTAVYYCAREGYSYRSIRFDYWGQGTLVTVSS VL: DIQMTQSPSSLSASVGDRVTITCRASQSISSNLNWYQQKPGKAPKLLIYAASNLQSGVPSRFSGSGSGTDFTLTISSLQPEDFATYYCLQFDHTPFTFGQGTKVEIKR
									0.05 µM	binds	binds	binds	binds	binds	binds	binds	~8 pM	~10 pM	B1
